Tests used:
[1] = molecular target: CDK-5 (Homo sapiens, UniProt Q00535); conditions: cited from earlier work
[2] = molecular target: GSK-3beta (Homo sapiens, UniProt P49841); conditions: cited from earlier work
[3] = tested on: BDTK promoter (CpG1.2-luciferase) in HEK 293 cells; test: CpG1.2-luciferase BDTK promoter reporter assay in HEK293 cells; type: cell-based, human; conditions: A-beta 1-42 0-30 μg/ml, 24 hours
Description: A luciferase assay was used to determine promoter activity. To conduct this assay, 1.2 kb and 0.6 kb promoter sequence were inserted into pGL3-control vector (Promega, named as CpG1.2 and CpG0.6, respectively). The luciferase constructs were co-transfected with reference reporter gene (thymidine kinase promoter TK-RL plasmid, Promega) into PC12 and HEK293 cells using lipofection method (GenePorter, Gene Therapy Systems, Inc.). At 48 hours after DNA transfection, each luciferase activity was measured using Dua1-luciferase kit (Promega). […] CpG1.2-luciferase vector was tested for its promoter activity by increasing dose of extracellular beta-amyloid peptide (A-beta) 1-42 (0-30 μg/ml) for 24 hours. CpG1.2 luciferase activities (PC12-CpG or HEK-CpG) are 8- to 10-fold higher than control activities (PC12-control or HEK293-control) without beta-amyloid stimulation.

[4] = molecular target: T1, BDTK (Homo sapiens, UniProt Q5TCY1); test: BDTK-mediated tau phosphorylation in vitro; type: biochemical
T1 construct: made in house
T1 sequence (Q5TCY1 38-319): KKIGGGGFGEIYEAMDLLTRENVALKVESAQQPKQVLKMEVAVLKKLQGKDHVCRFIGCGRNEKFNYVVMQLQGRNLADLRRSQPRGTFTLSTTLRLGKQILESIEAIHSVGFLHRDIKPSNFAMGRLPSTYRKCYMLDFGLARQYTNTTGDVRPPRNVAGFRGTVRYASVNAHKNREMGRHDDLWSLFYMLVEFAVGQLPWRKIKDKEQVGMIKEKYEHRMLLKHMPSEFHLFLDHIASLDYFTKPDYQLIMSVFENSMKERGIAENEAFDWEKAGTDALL

[5] = molecular target: T1, BDTK; test: BDTK phosphorylation (autophosphorylation) in vitro; type: biochemical
Description: Purified recombinant human tau (Calbiochem) was phosphorylated by purified BDTK(38-319) and BDTK(52-319) in vitro. Briefly, 1 μg of tau protein and 1 μg of BDTK mutants were incubated in buffer A (50 mM Tris-Cl, pH 7.5, 5mM Mg acetate, 1 mM EDTA, 1 mM DTT, 0.1 mM ATP, 2 μCi [γ-^32P]ATP) or buffer B (100 mM Mes-Na, pH 6.5, 5 mM Mg acetate, 1 mM EGTA, 1 mM DTT, 0.2 mM ATP, and 2 μCi[γ-^32P]ATP). The reaction was stopped at 30, 60, 120, and 180 minutes by addition of Laemmli sampling buffer. Samples were then subjected to SDS-PAGE and autoradiography.
An assay was conducted to identify promoters and inhibitors of BDTK activity. BDTK peptides may be used to inhibit BDTK activity. Two synthetic peptides (N21: […] (SEQ ID NO:21) and AA21: […]) (SEQ ID NO:22) are synthesized to test if N21 and A21, where conserved two glycine residues are substituted with alanine, has inhibitory effect of BDTK kinase activity in vitro. Increasing amounts of peptides (0-1 mM) were tested for BDTK and tau phosphorylation, in vitro. […] AA21 mutated peptide increased both BDTK (AA21-BDTK, from 30 to 300 μM) and tau phosphorylation (AA21-tau, from 30 μM to […]) in dose response manner.

Sequence of GSK-3beta (P49841 whole entry, species assumed): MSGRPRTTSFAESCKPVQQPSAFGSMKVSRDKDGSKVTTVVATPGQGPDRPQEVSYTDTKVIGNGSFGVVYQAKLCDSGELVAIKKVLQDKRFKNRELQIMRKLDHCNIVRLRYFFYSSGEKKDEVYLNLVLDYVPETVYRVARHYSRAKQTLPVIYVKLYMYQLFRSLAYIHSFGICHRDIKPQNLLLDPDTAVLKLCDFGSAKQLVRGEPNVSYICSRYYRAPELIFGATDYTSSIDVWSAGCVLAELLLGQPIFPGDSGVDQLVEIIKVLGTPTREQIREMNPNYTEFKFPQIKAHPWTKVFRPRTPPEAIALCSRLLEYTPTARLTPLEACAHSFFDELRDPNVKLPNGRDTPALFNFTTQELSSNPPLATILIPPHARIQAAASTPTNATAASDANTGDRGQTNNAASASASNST
Sequence of CDK-5 (Q00535 whole entry, species assumed): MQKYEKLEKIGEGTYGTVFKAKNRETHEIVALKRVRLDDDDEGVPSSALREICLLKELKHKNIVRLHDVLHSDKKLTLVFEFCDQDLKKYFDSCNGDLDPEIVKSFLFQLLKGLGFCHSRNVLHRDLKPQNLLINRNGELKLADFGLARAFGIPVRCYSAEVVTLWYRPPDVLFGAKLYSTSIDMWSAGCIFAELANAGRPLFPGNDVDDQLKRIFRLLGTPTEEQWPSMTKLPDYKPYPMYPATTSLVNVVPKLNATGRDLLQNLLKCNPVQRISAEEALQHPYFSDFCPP
Sequence of CDK-5 (Q15078 whole entry partner, species assumed): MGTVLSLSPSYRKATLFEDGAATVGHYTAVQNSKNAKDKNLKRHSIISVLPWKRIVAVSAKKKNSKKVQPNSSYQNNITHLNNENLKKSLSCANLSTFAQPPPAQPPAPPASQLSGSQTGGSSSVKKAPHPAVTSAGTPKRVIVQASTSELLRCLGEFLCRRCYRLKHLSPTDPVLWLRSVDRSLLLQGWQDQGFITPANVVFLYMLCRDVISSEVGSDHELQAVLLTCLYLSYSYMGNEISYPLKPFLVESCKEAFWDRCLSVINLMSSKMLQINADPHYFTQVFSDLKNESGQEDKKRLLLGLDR

## CC(C)[C@H](CO)Nc1nc(Nc2cccc(Cl)c2)c2ncn(C(C)C)c2n1 [puralanol A]
[1]
  IC50: 0.075 µM
[2]
  IC50: 13 µM

## Beta-amyloid: extracellular beta-amyloid peptide (A-beta) 1-42
[3]
  effect on CpG1.2-luciferase activity: weakly stimulated

## KDRWKVVKKIGGGGFGEIYEA [N21]
[4]; peptide from 300 μM to 1 μM
  effect on tau phosphorylation (N21-tau): partially inhibited
[5]; peptide 100 μM-1 mM
  inhibition of BDTK phosphorylation: up to 70%

## KDRWKVWKKIAGAGFGEIYEA [AA21]
[4]; peptide from 30 μM to 1 μM, dose response manner
  effect on tau phosphorylation (AA21-tau): increased
[5]; peptide from 30 to 300 μM, dose response manner
  effect on BDTK phosphorylation (AA21-BDTK): increased

From patent US7521230B2, “Nucleic acid encoding a Brain Derived Tau Kinase polypeptide and methods of use thereof” (Board of Regents of the University of Nebraska, priority 2002, dated 2009)
